Tests used:
[1] = molecular target: Cyno FcRn (cynomolgus monkey) (UniProt Q8SPV9); assay: SPR (ProteOn), IgG immobilised, cyno FcRn, pH 6.0
C1q = C1q (UniProt P02745); assay: effector binding, values nM, method not stated
Fcγ IIa = Fcγ IIa (UniProt P12318); assay: effector binding, values nM, method not stated
Fcγ RIa = Fcγ RIa (UniProt P12314); assay: effector binding, values nM, method not stated
Fcγ IIIa (158 F) = Fcγ IIIa (158 F) (UniProt P08637); assay: effector binding, values nM, method not stated
Fcγ IIIa (158 V) = Fcγ IIIa (158 V) (UniProt P08637); assay: effector binding, values nM, method not stated
Fcγ IIb = Fcγ IIb (UniProt P31994); assay: effector binding, values nM, method not stated
[2] = molecular target: Recombinant human FcRn (human) (UniProt P55899); assay: SPR (ProteOn), IgG immobilised, pH 6.0
[3] = molecular target: Cyno FcRn (cynomolgus monkey) (UniProt Q8SPV9); assay: SPR (ProteOn), IgG immobilised, cyno FcRn, pH 7.4
[4] = molecular target: Recombinant human FcRn (human) (UniProt P55899); assay: SPR (ProteOn), IgG immobilised, pH 7.4

Chain of Cyno FcRn (cynomolgus monkey) (Q8SPV9 24-297 limits assumed, chain 1 of 2): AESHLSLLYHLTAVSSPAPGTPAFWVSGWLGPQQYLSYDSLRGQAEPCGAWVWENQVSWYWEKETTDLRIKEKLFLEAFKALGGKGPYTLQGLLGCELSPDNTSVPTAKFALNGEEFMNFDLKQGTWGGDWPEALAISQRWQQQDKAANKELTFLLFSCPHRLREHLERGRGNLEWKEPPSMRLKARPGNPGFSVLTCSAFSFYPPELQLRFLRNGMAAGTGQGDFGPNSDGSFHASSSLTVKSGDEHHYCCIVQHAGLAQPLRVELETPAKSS
Chain of Cyno FcRn (cynomolgus monkey) (Q8SPW0 21-119 limits assumed, chain 2 of 2, further chain): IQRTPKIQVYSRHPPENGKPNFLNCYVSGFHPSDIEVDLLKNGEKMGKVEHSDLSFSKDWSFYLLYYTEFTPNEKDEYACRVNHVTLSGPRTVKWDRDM
Chain of Recombinant human FcRn (human) (P55899 24-297 limits assumed, chain 1 of 2): as the sequence (Q8SPV9 24-297 limits assumed, chain 1 of 2) above, with D39N, Q44E, S99G, G189S, N190S, M217L, T269S counted along it
Chain of Recombinant human FcRn (human) (b2m, as listed by the source limits assumed, chain 2 of 2): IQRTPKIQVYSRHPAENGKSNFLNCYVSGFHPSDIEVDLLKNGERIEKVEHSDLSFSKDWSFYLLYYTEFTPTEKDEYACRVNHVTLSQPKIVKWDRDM
Chain of C1q (P02745 23-245, chain 1 of 3): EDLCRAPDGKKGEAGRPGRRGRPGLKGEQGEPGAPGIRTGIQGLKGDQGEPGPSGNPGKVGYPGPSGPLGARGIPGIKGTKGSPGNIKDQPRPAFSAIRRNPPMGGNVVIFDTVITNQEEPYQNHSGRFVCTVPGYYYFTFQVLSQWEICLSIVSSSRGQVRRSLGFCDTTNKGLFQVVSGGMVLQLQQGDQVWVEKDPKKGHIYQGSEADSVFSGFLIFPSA
Chain of C1q (P02746 28-253, chain 2 of 3, further chain): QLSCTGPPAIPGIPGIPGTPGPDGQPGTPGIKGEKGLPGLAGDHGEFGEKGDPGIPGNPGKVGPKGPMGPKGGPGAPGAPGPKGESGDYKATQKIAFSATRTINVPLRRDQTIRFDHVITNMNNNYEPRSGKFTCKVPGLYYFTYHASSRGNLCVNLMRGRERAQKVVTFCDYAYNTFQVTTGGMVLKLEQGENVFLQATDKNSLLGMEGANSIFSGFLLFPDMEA
Chain of C1q (P02747 29-245, chain 3 of 3, further chain): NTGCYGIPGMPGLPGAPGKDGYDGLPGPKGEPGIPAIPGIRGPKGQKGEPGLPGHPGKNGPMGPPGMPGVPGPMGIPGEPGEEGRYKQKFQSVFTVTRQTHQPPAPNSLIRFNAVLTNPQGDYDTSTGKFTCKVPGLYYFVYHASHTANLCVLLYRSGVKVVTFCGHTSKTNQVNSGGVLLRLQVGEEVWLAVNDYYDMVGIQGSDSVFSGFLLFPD
Chain of Fcγ IIIa (158 F) (P08637 17-208 limits assumed): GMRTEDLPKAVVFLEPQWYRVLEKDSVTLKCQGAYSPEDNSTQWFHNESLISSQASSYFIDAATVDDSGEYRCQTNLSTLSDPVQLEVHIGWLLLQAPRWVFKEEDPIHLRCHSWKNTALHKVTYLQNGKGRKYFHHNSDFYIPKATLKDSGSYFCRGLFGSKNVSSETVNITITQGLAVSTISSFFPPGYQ
Chain of Fcγ RIa (P12314 16-288 limits assumed): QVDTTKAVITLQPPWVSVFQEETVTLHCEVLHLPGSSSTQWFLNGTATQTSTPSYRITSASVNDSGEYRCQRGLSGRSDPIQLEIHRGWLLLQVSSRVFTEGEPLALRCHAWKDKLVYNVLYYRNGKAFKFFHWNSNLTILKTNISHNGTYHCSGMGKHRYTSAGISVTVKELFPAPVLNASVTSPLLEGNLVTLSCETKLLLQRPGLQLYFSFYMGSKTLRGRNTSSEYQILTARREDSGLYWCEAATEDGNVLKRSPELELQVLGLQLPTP
Chain of Fcγ IIa (P12318 34-217 limits assumed): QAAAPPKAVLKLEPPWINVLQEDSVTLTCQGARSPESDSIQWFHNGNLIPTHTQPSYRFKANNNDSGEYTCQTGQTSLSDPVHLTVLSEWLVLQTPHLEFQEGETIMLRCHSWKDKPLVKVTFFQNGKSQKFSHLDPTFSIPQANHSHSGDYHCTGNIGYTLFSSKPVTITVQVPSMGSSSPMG
Chain of Fcγ IIb (P31994 43-217 limits assumed): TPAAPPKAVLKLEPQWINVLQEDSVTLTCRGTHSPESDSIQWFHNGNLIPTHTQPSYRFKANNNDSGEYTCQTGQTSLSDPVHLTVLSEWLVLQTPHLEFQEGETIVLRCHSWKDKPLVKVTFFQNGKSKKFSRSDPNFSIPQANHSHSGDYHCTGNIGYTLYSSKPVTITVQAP
Chain of Fcγ IIIa (158 V) (P08637 17-208 F176V limits assumed): as the sequence (P08637 17-208 limits assumed) above, with F160V counted along it

In the case of Wildtype Motavizumab (antibody), the Kd [1] is reported as 1920 nM, the Kd (C1q) is reported as 328 nM and the Kd (Fcγ IIa) is reported as 506 nM. The Kd (Fcγ RIa) was 45.8 nM and the Kd (Fcγ IIIa (158 F)) was 4140 nM.

Motavizumab YTE (antibody) gave a Kd [1] of 275 nM, a Kd (C1q) of 482 nM and a Kd (Fcγ IIIa (158 V)) of 245 nM. The Kd (Fcγ IIb) was 1950 nM, the Kd (Fcγ IIIa (158 F)) was 6060 nM and the Kd [2] was 314 nM. The Kd [3] was 8000 nM.

Work on HB20.3 (anti-CD20) IgG1 YTE (antibody) yielded a Kd [4] of 5800 nM and a Kd [2] of 215 nM.
